Measured values from article PMC7614494.

Assays:
Mouse saposin A (mouse) [1] = assay: crystal structure; SapA-PC preparation (100 mM citrate pH 4.0, 150 mM NaCl) mixed with acid ceramidase; sitting drops at 293 K, 23.25% PEG 3350, 0.1 M Bis-Tris pH 5.6; only SapA found in the crystal; 3.17 Å
Mouse saposin A (mouse) [2] = assay: SEC-MALS; SapA after incubation with DDM-solubilised phosphatidylcholine (PC:SapA 30:1); Superdex 200 Increase 10/300 GL, 100 mM citrate pH 4.0, 150 mM NaCl, room temperature; protein conjugate analysis of three regions of a heterogeneous peak

Mouse saposin A (natural protein)
stoichiometry N (Mouse saposin A (mouse) [1]): 4
stoichiometry N (Mouse saposin A (mouse) [2]): 3 to 4
